In US20090304721A1 (MEDLMMUNE, published 2009):
One block for each binder: values may come before it.

Tests used:
[1] = target: T1, mouse EphA2 expressed on cells (mouse, UniProt Q03145 26-977); experiment: flow cytometry on tumor cell lines, 1 ug antibody, PE anti-human IgG
T1 construct: whole, on cells
Description: (§1) The cells were then washed 2× with cold PBS and stained for 30 minutes at 4° C. with secondary Abs (Phycoerythin conjugated goat-a-human IgG, Biosource). Fluorescence analysis was performed using a FACS Calibur flow cytometer (BD Biosciences).

[2] = target: T2, human EphA2 expressed on cells (human, UniProt P29317 24-976); experiment: flow cytometry on twelve human cell lines, 1 ug primary antibody per 2x10^5 cells, PE goat anti-human IgG; y axis Mean Fl. Shift (%)
T2 construct: whole, on cells; Endogenous receptor on human tumor cell lines and HUVEC
Description: as §1

[3] = target: T2, human EphA2 expressed on cells; experiment: cell-based or functional assay
[4] = target: T2, human EphA2 expressed on cells; experiment: immunofluorescence of HUVEC cells labeled with 50 ug/ml antibody at 4 C, 0 or 20 min at 37 C, fixed, permeabilized, AlexaFluor 488 goat anti-human IgG, DAPI mounting medium

T2 sequence (P29317 24-976): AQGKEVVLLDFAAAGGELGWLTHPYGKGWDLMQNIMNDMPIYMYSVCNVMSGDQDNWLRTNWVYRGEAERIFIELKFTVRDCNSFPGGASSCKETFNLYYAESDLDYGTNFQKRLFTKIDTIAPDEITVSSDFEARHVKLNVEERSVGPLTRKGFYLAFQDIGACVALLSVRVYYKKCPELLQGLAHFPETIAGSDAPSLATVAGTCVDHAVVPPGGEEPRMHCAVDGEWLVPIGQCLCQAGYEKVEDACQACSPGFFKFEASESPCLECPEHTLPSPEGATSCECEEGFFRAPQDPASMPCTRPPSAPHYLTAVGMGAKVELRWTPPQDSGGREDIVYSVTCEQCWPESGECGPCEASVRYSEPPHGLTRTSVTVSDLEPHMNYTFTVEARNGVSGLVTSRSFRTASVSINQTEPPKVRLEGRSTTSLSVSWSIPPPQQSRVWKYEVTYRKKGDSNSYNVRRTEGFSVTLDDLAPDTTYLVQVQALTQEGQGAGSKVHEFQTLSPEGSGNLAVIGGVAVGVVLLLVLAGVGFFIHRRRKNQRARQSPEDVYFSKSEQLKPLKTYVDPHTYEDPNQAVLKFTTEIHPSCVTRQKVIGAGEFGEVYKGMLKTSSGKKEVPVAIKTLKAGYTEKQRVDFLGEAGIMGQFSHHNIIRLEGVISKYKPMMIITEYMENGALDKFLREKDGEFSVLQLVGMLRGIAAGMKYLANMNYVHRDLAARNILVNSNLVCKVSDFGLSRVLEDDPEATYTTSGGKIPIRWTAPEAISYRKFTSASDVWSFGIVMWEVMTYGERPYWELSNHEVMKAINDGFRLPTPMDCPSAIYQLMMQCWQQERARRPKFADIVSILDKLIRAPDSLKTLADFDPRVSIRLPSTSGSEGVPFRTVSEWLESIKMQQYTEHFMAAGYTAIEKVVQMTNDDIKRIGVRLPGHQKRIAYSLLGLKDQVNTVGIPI
T1 sequence (Q03145 26-977): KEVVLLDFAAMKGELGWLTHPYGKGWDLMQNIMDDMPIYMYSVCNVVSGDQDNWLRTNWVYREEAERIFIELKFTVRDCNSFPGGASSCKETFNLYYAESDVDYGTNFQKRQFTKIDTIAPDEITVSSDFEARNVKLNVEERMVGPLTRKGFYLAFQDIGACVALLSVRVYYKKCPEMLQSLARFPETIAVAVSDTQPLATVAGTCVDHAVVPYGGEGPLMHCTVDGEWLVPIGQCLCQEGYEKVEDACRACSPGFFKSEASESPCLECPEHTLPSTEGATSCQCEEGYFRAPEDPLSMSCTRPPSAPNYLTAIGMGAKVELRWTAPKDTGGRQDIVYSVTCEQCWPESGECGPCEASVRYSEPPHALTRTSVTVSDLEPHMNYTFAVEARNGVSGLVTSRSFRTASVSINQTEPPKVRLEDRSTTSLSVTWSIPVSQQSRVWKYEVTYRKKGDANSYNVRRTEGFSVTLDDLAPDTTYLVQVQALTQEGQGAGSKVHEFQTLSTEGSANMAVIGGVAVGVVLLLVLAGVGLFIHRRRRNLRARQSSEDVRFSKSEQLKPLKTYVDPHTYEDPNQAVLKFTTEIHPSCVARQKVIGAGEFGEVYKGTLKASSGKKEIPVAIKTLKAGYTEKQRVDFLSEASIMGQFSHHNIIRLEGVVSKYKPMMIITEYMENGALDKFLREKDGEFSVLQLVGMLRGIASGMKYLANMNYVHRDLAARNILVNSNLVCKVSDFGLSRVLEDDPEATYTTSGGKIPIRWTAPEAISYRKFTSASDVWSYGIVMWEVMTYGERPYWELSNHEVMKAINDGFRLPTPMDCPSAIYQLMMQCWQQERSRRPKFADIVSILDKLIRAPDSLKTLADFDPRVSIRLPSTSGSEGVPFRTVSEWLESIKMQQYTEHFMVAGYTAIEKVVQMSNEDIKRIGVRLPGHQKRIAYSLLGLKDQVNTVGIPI

- binding result [1]: binds
- binding result [2]: binds
B1: anti-EphA2 antibody 1H3 (antibody, V domains shown)
VH: EVQLLESGGGLVQPGGSLRLSCAASGFTFSMYAMRWVRQAPGKGLEWVSVIGPSGGWTPYADSVKGRFTISRDNSKNTLYLQMNSLRAEDTAVYYCARDRGIYGMDVWGQGTTVTVSS
VL: DIQMTQSPSFLSASVGDRVTITCRASQGISSYLAWYQQKPGKAPKLLIYAASTLQSGVPSRFSGSGSGTEFTLTISSLQPEDFATYYCLELNNYPFTFGLGTKVHIK

- IC50 (read off the curve), growth inhibition of MCF10-A cells [3]: ~20 nM
B2: 3F2mcMMAF (antibody, V domains shown)
VH: EVQLVESGGGVVRPGGSLRLSCAASGFTVSDYSMNWVRQAPGKGLEWIGFIRNKANAYTTEYSASVKGRFTISRDDSKNTLYLQMNSLKTEDTAVYYCTTYPRYHAMDSWGQGTMVTVSS
VL: AIQLTQSPSSLSASVGDRVTITCRASQSISNNLHWYLQKPGQSPQLLIYYGFQSISGVPSRFSGSGSGTDFTLTISSLQPEDFATYYCQQANSWPLTFGGGTKLEIK
modifications: antibody conjugated to monomethylauristatin F (MMAF) through a maleimidocaproyl-citrulline (mc) linker; attachment residues not stated

- binding result [4]: binds
B3: anti-EphA2 antibody 3F2 (antibody, V domains shown)
VH: B2 VH
VL: B2 VL
notes: Humanized agonistic monoclonal antibody
